Our source for the Kd values is the Immune Epitope Database (IEDB).

For the first test, the target named is HLA-A*03:01. The test is described as follows: IEDB peptide-MHC binding, purified MHC/competitive/fluorescence; filed as Kd, often an IC50 or EC50 that approximates it; ≥ and ≤ were set here for values at or beyond the usual limits of such assays. The following applies: source organism: Coxiella burnetii.
For orientation: Kd means the concentration at which binding is half-saturated. A low value points to higher affinity. KTFVYPMGLY yielded a Kd not below 5 µM.

ATSNLIYKLK gave a Kd not below 5 µM.

Consider ASFQNYLNDY, for which the Kd was not below 1000 µM.

With ISYDRFTVGK, the Kd is not below 5 µM.

Regarding SLFANMNGHY, the Kd is not below 50 µM.

Consider KLILFVYRY, for which the Kd is not below 50 µM.

VLDCNYLSK came in with a Kd not below 5 µM.

LLSTLCLYRK yielded a Kd not below 50 µM.

LSATFITSK registered a dissociation constant (Kd) not below 5 µM.

On to GVDRFITYK, for which the Kd was not below 5 µM.

The target of the next test is HLA-A*02:01. Described as above. The following applies: source organism: Coxiella burnetii.
Consider FLFFYSGLIL, for which the Kd was not below 5 µM.

IMIDRLIEQL showed a Kd not below 5 µM.

For the sequence MLWLPLLLIL, the Kd was not below 5 µM.

Take YLLDRCPFL: the equilibrium dissociation constant (Kd) was not below 5 µM.

Take RMYISFFPL: the Kd is not below 5 µM.

In turn, LLWHGVSTL gave a Kd not below 5 µM.

With VIDDLIVYRV, the Kd is not below 50 µM.

For YLVNHPEVL, the Kd is not below 50 µM.

Consider NMFQHLPYL, for which the Kd was not below 5 µM.

FLIAVFARHL: the Kd was not below 5 µM.

In another test the target is HLA-A*24:02. The description is as above. As to conditions: source organism: Coxiella burnetii.
As for SFVPKFFLTF, the Kd is not below 5 µM.

As for WYVVNNNYL, the dissociation constant Kd was not below 5 µM.

In turn, NFSDYIWHF displayed a Kd not below 5 µM.

Sequence LYDDEFKFL yielded a Kd not below 5 µM.

For the sequence QYLQYLWPL, the Kd was not below 5 µM.

As to IYDDRLLFEF, the Kd was not below 5 µM.

Regarding TYRHNKKLL, the dissociation constant Kd was not below 50 µM.

Sequence TYRVLNYKDL yielded a Kd not below 50 µM.

GYHSITPYLF registered a dissociation constant Kd not below 5 µM.

For another test, the target named is HLA-B*07:02. The description is as above. As to conditions: source organism: Coxiella burnetii.
Turning to KPLQVINRKY, the Kd was not below 1000 µM.

TPDFPQLFF registered a Kd not below 50 µM.

Sequence SPHPRVNQF showed a Kd not below 5 µM.

TPTFVIGNKA yielded a Kd not below 1000 µM.

The sequence LPRNRYRLVF displayed a Kd not below 5 µM.

The sequence LPRRHNFYNY had a Kd not below 1000 µM.

Sequence LPQKPWWKF registered a Kd not below 1000 µM.

A further test addresses HLA-A*01:01. The test is described as above. As to conditions: source organism: Coxiella burnetii.
In turn, VTLVEFFDY yielded a Kd not below 1000 µM.

KTEQDKLSY gave a Kd not below 50 µM.

HTYYLIGFLY displayed a Kd not below 50 µM.

As to VSDATVAKWY, the Kd was not below 50 µM.

FFEDFTHRY registered a Kd not below 1000 µM.

In turn, QSGWTIHHY came in with a Kd not below 1000 µM.

The sequence MVEEKYNYFY returned a Kd not below 5 µM.

For the sequence ETYNSINKY, the Kd was not below 1000 µM.

As for LTLLLNWVNY, the Kd is not below 50 µM.

SLESGFTYY yielded a Kd not below 5 µM.

The next test addresses HLA-B*44:02. The test is described as above. The following applies: source organism: Coxiella burnetii.
Sequence METPPQSPDF displayed a Kd not below 1000 µM.

REMYSRRRMY showed a Kd not below 5 µM.

The sequence KDIQSIVHHY had a Kd not below 1000 µM.

Take EEFVKTQSY: the Kd is not below 5 µM.

GEEATAFLRY: the Kd was not below 50 µM.

In the case of NEIETATRY, the Kd was not below 5 µM.

As for IERVFYYFPL, the Kd is not below 1000 µM.

In the case of FEALHLLYAL, the dissociation constant Kd was not below 1000 µM.

For the sequence MEVRDLLNSY, the Kd is not below 5 µM.

For IEVVKKYMDY, the Kd was not below 1000 µM.
